What all share (experiment): competition ELISA, antibody preincubated with target, AMH-coated plate
Test [1] concerns the target T1, AMH truncated antigen 31-44 (human).
T1 sequence (peptide): AVGTSGLIFREDLD

The target in test [2] is T2, AMH truncated antigen 36-44 (human).
T2 sequence (peptide): GLIFREDLD

In test [3] the target is T3, AMH truncated antigen 37-43 (human).
T3 sequence (peptide): LIFREDL

In test [4] the target is T4, AMH truncated antigen 38-44 (human).
T4 sequence (peptide): IFREDLD

In test [5] the target is T5, AMH truncated antigen 39-45 (human).
T5 sequence (peptide): FREDLDW

The target of test [6] is T6, AMH truncated antigen 41-47 (human).
T6 sequence (peptide): EDLDWPP

The target of test [7] is T7, AMH truncated antigen 41-50 (human).
T7 sequence (peptide): EDLDWPPGSP

Test [8] addresses T8, AMH truncated antigen 41-51 (human).
T8 sequence (peptide): EDLDWPPGSPQ

For test [9], the target named is T9, AMH truncated antigen 41-55 (human).
T9 sequence (peptide): EDLDWPPGSPQEPLC

Test [10] concerns the target T10, AMH truncated antigen 42-50 (human).
T10 sequence (peptide): DLDWPPGSP

The target in test [11] is T11, AMH truncated antigen 42-51 (human).
T11 sequence (peptide): DLDWPPGSPQ

The target in test [12] is T12, AMH truncated antigen 61-75 (human).
T12 sequence (peptide): GDSNGSSSPLRVVGA

Test [13] deals with T13, AMH3647-14 (Little mole rat sequence) (Little mole rat).
T13 sequence (peptide): GLIFLQDGMWSP

Test [14] concerns the target T14, AMH3647-21 (Sheep sequence) (Sheep).
T14 sequence (peptide): TLIFQQGWDWPL

The target of test [15] is T15, AMH3647-26 (Monkey sequence) (Monkey).
T15 sequence (peptide): GLIFREDLGWPP

The target in test [16] is T16, AMH3647-5 (Diademed Sifaka sequence) (Diademed Sifaka).
T16 sequence (peptide): GLIFHEDWDWPP

Test [17] deals with T17, human AMH36-47 short peptide, mutation site 39 (human).
T17 peptide: GLIAREDLDWPP
The procedure:
(§1) 1. AMH antigen was diluted with carbonic acid buffer (20 mmol/L CB, pH 9.6) and then coated on a polyvinyl chloride plate. In the pretreatment, the antibody purified by the protein A column and the synthesized short peptides with different human AMH36-47 amino acid mutations were subjected to proportion incubation (100 ng/ml antibody: 50 ug/ml truncated antigen) for 30 minutes, that were test samples; the control sample was (100 ng/ml antibody: PBS) and incubated for 30 minutes, and then the test samples after incubation and the control sample were added to AMH antigen plate and incubated for 30 minutes, the plate was washed for 5 times, added with GAM-HRP (1/5000 dilution) and incubated for 30 minutes, the plate was washed for 5 times, and the substrate was added and incubated for 15 minutes. The values under wavelength of 450/620 were read by microplate reader, and the detected OD values were finally calculated and analyzed. The calculation formula was: (control sample OD value−test sample OD value)/control sample OD value, and the criterion for determination was as follows: a value lower than 90% indicated the corresponding amino acid was a key amino acid, and the mutation has a great impact on the reaction of antibody.

The target in test [18] is T18, human AMH36-47 short peptide, mutation site 40 (human).
T18 peptide: GLIFAEDLDWPP
The procedure: as §1

The target of test [19] is T19, human AMH36-47 short peptide, mutation site 42 (human).
T19 peptide: GLIFREALDWPP
The procedure:
as §1

Test [20] concerns the target T20, human AMH36-47 short peptide, mutation site 43 (human).
T20 peptide: GLIFREDADWPP
The procedure: as §1

The record followed here is patent US20220146515A1 (XIAMEN INNODX BIOTECH, published 2022).

B1: monoclonal antibody C9F2-2 (antibody, V domains shown)
VH: EVQLVESGGGLVKPGGSLKLSCAASGFAFSTYDMSWVRQTPEKRLEWVAYISPGGGATYYPDTVKGRFTISRDNAKNTLYLQMTSLKSEDTAMYYCAGRRDYYGMDYWGQGTSVTVSS
VL: DVVMTQTPLSLPVSLGDQASISCRSSQSLVHSNGNTYLHWYLQKPGQSPKLLIYKVSNRFSGVPDRFSGSGSGTDFTLKISRVEAEDLGVYFCSQSTHVPWTFGGGTKLEIK
notes: Mouse hybridoma antibody purified from ascites; the tie is indirect; also called hybridoma CCTCC NO: C2018183
For B1, the percent inhibition in test [1] is 38%; in [2], 32%; in test [3], 57%; in [4], 33%; in [5] it was 68%; in test [6], 64%. Moreover, the percent inhibition is 65% in test [7]; 71% in test [8]; 68% in [9]; 57% in test [10]; 60% in [11]; 35% in [12]. Further, the percent inhibition amounted to 29% in test [13]; 10% in [14]; 61% in test [15]; 32% in test [16]; 9% in [17]; 88% in test [18]. Also, the percent inhibition in test [19] stood at 98%; in [20], 94%.
